Measurements as given in paper PMC3477590.

Columns and labels:
[1] = biological target: cellular RBX1 (Fig. S7) (human) (UniProt P62877)
[2] = biological target: CFP-RBX1-CUL1^CTD~NEDD8 (UniProt P62877); assay: FRET or BRET
[3] = biological target: CFP-RBX1^RING (human) (UniProt P62877); assay: FRET or BRET
[4] = biological target: CFP-RBX1-CUL1^CTD (human) (UniProt P62877); assay: FRET or BRET
Chain of CFP-RBX1-CUL1^CTD (human) (P62877 whole entry, chain 1 of 2): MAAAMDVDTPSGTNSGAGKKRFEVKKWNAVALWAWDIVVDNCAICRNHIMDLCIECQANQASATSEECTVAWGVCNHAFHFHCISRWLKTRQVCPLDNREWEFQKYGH
Chain of CFP-RBX1-CUL1^CTD (human) (Q13616 411-776, chain 2 of 2, further chain): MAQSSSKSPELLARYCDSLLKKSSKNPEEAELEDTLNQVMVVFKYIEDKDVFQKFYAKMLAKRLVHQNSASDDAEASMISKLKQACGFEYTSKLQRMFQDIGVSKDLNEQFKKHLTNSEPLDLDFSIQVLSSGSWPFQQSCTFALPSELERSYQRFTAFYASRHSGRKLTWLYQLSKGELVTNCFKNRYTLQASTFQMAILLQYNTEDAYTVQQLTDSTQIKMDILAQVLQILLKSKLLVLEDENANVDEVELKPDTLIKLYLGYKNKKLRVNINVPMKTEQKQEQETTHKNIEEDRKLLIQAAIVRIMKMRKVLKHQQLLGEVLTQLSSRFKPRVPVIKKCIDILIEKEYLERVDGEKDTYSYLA

Chain of GLMN-YFP (Q92990 whole entry): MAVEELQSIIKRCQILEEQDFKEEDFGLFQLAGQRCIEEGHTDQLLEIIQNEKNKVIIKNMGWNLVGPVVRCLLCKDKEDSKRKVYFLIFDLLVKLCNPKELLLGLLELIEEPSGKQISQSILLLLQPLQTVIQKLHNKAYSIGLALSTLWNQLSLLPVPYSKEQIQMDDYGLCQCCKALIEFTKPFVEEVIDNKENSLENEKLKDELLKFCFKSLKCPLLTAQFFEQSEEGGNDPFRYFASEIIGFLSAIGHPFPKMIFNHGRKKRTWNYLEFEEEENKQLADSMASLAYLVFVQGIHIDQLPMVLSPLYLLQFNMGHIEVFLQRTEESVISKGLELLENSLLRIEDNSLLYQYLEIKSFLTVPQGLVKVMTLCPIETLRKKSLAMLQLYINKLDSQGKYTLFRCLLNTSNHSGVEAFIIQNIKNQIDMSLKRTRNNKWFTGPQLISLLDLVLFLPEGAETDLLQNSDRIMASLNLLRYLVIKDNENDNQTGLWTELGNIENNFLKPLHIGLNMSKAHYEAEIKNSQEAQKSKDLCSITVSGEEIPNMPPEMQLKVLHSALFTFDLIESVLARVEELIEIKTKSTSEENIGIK
Chain of GLMN in cells (Fig. S7) (Q92990 whole entry): as above
Chain of CFP-RBX1-CUL1^CTD~NEDD8 (P62877 whole entry, chain 1 of 3): as the sequence (P62877 whole entry, chain 1 of 2) above
Chain of CFP-RBX1-CUL1^CTD~NEDD8 (Q13616 411-776, chain 2 of 3, further chain): as the sequence (Q13616 411-776, chain 2 of 2, further chain) above
Chain of CFP-RBX1-CUL1^CTD~NEDD8 (Q15843 1-76, chain 3 of 3, further chain): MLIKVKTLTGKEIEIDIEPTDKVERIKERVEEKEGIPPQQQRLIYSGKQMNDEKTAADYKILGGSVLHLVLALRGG
Chain of cellular RBX1 (Fig. S7) (human) (P62877 whole entry): as the sequence (P62877 whole entry, chain 1 of 2) above
Chain of CFP-RBX1^RING (human) (P62877 whole entry): as the sequence (P62877 whole entry, chain 1 of 2) above

| percent of cellular RBX1 bound by GLMN [1] [percent] | Kd [2] [nM] | Kd [3] [nM] | Kd [4] [nM] | Substance |
| --- | --- | --- | --- | --- |
| 7 |  |  |  | GLMN in cells (Fig. S7) (from UniProt Q92990 1-594) (natural protein) |
|  | 28 | 45 | 36 | GLMN-YFP (from UniProt Q92990 1-594) (natural protein) |
